{"source": "patent US12312397B2", "about": "“Anti-O2 antibodies and uses thereof” (priority 2016, dated 2025)", "molecules": {"B1": {"name": "KPS30: Class I anti-O2 antigen human mAb; VH SEQ ID NO: 125, VL SEQ ID NO: 126 (antibody, V domains shown)", "VH": "EMQLVESGGGLVQPGVSLRLSCVDSGFSFSTSWLAWVRQAPGKGLEWLANIDPDGSTRNHVDSVRGRFTISRDNAKNSLYLQMNSLRAEDTAVYYCARDYAYNRFDYWGQGTMVTVSS", "VL": "QSALTQPPSASGSPGQSVVISCTGTSSDIGANNYVSWYQQHPGKAPKLLLYEVNKRPSGVPDRFSASKSGNTASLTVSGLLAEDEADYYCCGYGGGRVFGGGTKLTVL", "modifications": "Description of Artificial Sequence: SyntheticKPS30 VH polypeptide; Description of Artificial Sequence: SyntheticKPS30 VL polypeptide"}, "B2": {"name": "KPS24: Class III anti-O2 antigen human mAb; VH SEQ ID NO: 107, VL SEQ ID NO: 108 (antibody, V domains shown)", "VH": "ELHLVESGGGLVKPGGSLRLSCAASGFTFKNAWMSWIRQAPGKGLEWVGRVKSEVDGGTTDYGVPVRGRFTISRDDSQSTLSLEMSSLQDDDTGVYYCRAFWSDFQTGYWGQGTLVTVSS", "VL": "QSVLTQPPSVSAAPGQTVTIACSGSSSNIGSDSVSWFQQLPGTAPRVLMYENNKRPSGISDRFSGSKSGTSVTLGITGLQTGDEADYYCAAWDSSLRAYVFGSGTKVTVL", "modifications": "Description of Artificial Sequence: SyntheticKPS24 VH polypeptide; Description of Artificial Sequence: SyntheticKPS24 VL polypeptide"}, "B3": {"name": "KPN17: Class I anti-O2 antigen human mAb; VH SEQ ID NO: 71, VL SEQ ID NO: 72 (antibody, V domains shown)", "VH": "EVQLVESGGGLVQPGGSLRLSCAASGFTFSHFWMHWVRQAPGQGLVWVARIDGSVTNLRYAGSVEGRFTISRDNAKNTLYLQMNSLRDEDTAVYYCARDLVGIGTPAGYGMDVWGQGTTVTVSS", "VL": "DIQLTQSPSFLSASVGDRVTITCRASQGISTYLAWYQQKPGKAPKLLIYAASTLQSGVPSRFSGSGSGTEFTLTINSLQSEDFATYYCQQLTSHLYTFGQGTKLEIK", "modifications": "Description of Artificial Sequence: SyntheticKPN17 VH polypeptide; Description of Artificial Sequence: SyntheticKPN17 VL polypeptide"}, "B4": {"name": "KPN44: anti-O2 antigen human mAb; VH SEQ ID NO: 62, VL SEQ ID NO: 63 (antibody, V domains shown)", "VH": "QVQLQESGPGLVKPSETLSLTCTVSGGSTSSYYWNWIRQAPGKPLQWIANIHHGGTTYYNPSLRSRVTMSLDTSNNQFSLKLTSVTAADTAVYFCARESDDGYRWNYFDYWGQGVLVTVSS", "VL": "EIVLTQSPASLSLSPGDRATLSCRASQTITNYLAWYQHKPGQAPRLLIFDMSKRATGIPARFSGSGSGTDFTLTISSLEPEDFAVYYCQHRSNWPLFTFGPGTNVDIK", "modifications": "Description of Artificial Sequence: SyntheticKPN44 VH polypeptide; Description of Artificial Sequence: SyntheticKPN44 VL polypeptide"}, "B5": {"name": "KPL36: Class II anti-O2 antigen human mAb; VH SEQ ID NO: 189, VL SEQ ID NO: 192 (antibody, V domains shown)", "VH": "EVQLVESGGGVVQSGGSLRLSCETSGFTFISSWMSWVRQAPGTGLEWVATINPDGTETPYADSLKGRFTISRDNTKKSLYLQIHSLRADDTAVYFCARNKAYNAHDFWGQGTLVMVSS", "VL": "QSALTQPPSASGSPGQSVTISCTGTSSDVGGNNFVSWYQQYPGKAPKLIIYEVNKRPSGVPDRFSGSKSGNTASLTVSGLQAEDEADYYCGAFGGSKMFGGGTKLTVL", "modifications": "Description of Artificial Sequence: SyntheticKPL36 VH polypeptide; Description of Artificial Sequence: SyntheticKPL36 VL polypeptide"}}, "data": [{"tested_on": "O2 LPS", "assay": "ELISA binding to O2 LPS", "parameters": "species or system Klebsiella pneumoniae", "conditions": "secondary screening, ELISA", "method": "(§1) The coated plates were incubated with cell culture supernatants from polyclonally stimulated lymphocytes (AMVBRA) or from monoclonal immortalized B cells (donor interrogations) containing fully human antibodies or with diluted plasma samples (PBMC donor selections) for 1 hour at room temperature. The plates were then washed with PBS containing 0.1% Tween-20 (PBS-T). Secondary antibody was added; either Alkaline Phosphatase-conjugated Goat Anti-Human IgG-AP (Southern Biotech, 2040-04, 1:1000 in PBS-B) or Peroxidase AffiniPure F(ab′)2 Fragment Goat Anti-Human IgG, Fc Fragment Specific (Jackson ImmunoResearch #309 036 098, 1:5000 in PBS-B) were used. Secondary antibodies were typically incubated for 1 h. Plates were washed three times with PBS-T, and P-NitroPhenyl Phosphate (pNPP, Sigma-Aldrich, cat #N2765-100TAB) or Sureblue (KPL, 53-00-03) substrates were added and incubated for 10 min or until the development of a colorimetric reaction. In the case of the HRP substrate Sureblue, the reaction was stopped by adding an equal volume of 0.2N HCl. The absorbance at 405 nm (pNPP) or 450 nm (Sureblue) was measured by a microplate reader (Biotek, Elx808).\n(§2) The coated plates were incubated with serial dilutions of the monoclonal antibodies for 1 hour at room temperature. The plates were then washed with PBS containing 0.1% Tween-20 (PBS-T). Alkaline Phosphatase-conjugated Goat Anti-Human IgG (Southern Biotech, 2040-04, 1:1000 in PBS-B) was added. The secondary antibody reactions were incubated for 1 h. Plates were washed three times with PBS-T, and P-NitroPhenyl Phosphate (pNPP, Sigma-Aldrich, cat #N2765-100TAB) substrate was added and incubated for 30 min or until the development of a colorimetric reaction. The absorbance at 405 nm was measured by a microplate reader (Biotek, Elx808). The data was plotted with Graphpad Prism software. Representative mAbs from each class were tested for their binding to O1 LPS (FIG. 2A) and O2 LPS (FIG. 2B), and EC50 values were obtained (FIG. 2C). The majority of the anti-O2 LPS mAbs bound to both O1 and O2 LPS by ELISA. […] None of these LPS mAbs bound to the 03, 04, 05, 07, or 012 LPS serotypes (see e.g., FIG. 1A).", "values": [{"molecule": "B1", "binding to LPS-O2": "bound"}, {"molecule": "B2", "binding to LPS-O2": "bound specifically"}, {"molecule": "B3", "binding to LPS-O2": "bind"}, {"molecule": "B4", "binding to LPS-O2": "bind"}, {"molecule": "B5", "binding to LPS-O2": "confirmed to bind"}]}, {"tested_on": "O1 LPS activation of NF-κB in RAW264.7-lux cells", "assay": "LPS neutralization assay (NF-κB luciferase, RAW264.7-lux), O1 LPS", "assay_type": "cell-based, murine", "conditions": "human IgG1 format", "method": "(§3) Activation of TLR4 receptors by bacterial LPS leads to downstream activation of the NF-κB transcriptional regulator. A decrease in induction of NF-κB-responsive luciferase activity was used to quantify LPS neutralization activity by LPS mAbs. A murine RAW264.7 macrophage cell line was engineered to carry a firefly luciferase reporter gene under the control of an NF-κB-responsive promoter (RAW264.7-lux). Serially diluted antibody stocks were mixed with LPS in a 1:1 ratio and incubated at 4° C. for 1 hr. Antibody/LPS mixtures were then diluted 1:10 into assay plates containing pre-seeded RAW264.7-lux cells (4e5 cells/well), which were then placed at 37° C. with 5% CO2 for 2.5 hours. Following incubations, Steady Glo solution (Promega) was added to each well and incubated for another 20 min protected from light. The relative light units (RLUs) were measured using a multi-mode microplate reader (Synergy 2, Biotek or envision multilabel plate reader, Perkin Elmer). The percentage of inhibition was determined by comparing RLU derived from assays with no antibodies to RLU derived from assays with anti-K. pneumoniae mAbs and assays performed with a negative control mAb. […] All mAbs were tested in human IgG1 format.", "values": [{"molecule": "B2", "neutralizing activity against O1 LPS (NF-κB activation)": "no activity"}, {"molecule": "B3", "neutralizing activity against O1 LPS (NF-κB activation)": "no activity"}, {"molecule": "B4", "neutralizing activity against O1 LPS (NF-κB activation)": "blocked"}, {"molecule": "B5", "neutralizing activity against O1 LPS (NF-κB activation)": "no activity"}]}, {"tested_on": "O1 LPS activation of NF-κB in RAW264.7-lux cells", "assay": "LPS neutralization assay (NF-κB luciferase, RAW264.7-lux), O1 LPS", "assay_type": "cell-based, murine", "conditions": "secondary screening", "method": "as §3", "values": [{"molecule": "B1", "neutralization of LPS-O1": "neutralized"}, {"molecule": "B4", "neutralization of LPS-O1": "neutralize"}]}, {"tested_on": "K. pneumoniae 8570ΔcpsBLux (O2)", "assay": "Opsonophagocytic killing (OPK) assay, O2 capsule mutant", "assay_type": "cell-based, Klebsiella pneumoniae", "parameters": "key to D Capsule OPK O2: +++: Strongly positive activity; +: Positive activity; +/−: Somewhat positive depending upon the test conditions", "conditions": "capsule mutant strain 8570ΔcpsB lux (O2)", "method": "(§4) OPK activity of anti-O2 LPS mAbs was tested against O1 and O2 strains. Briefly, log phase cultures of luminescent K. pneumoniae strains 8570ΔcpsBLux (O2) and 43816ΔcpsBLux (O1) were diluted to ˜2×10^6 cells/ml. K. pneumoniae cells, 5e5/well dimethylformamide (DMF) differentiated HL-60 cells, cleared baby rabbit serum (1:10 Cedarlane), and a series dilution of antibodies (2 ng-2.5 μg/mL) were mixed in 96-well plates and incubated at 37° C. for two hours with shaking (250 rpm). The relative light units (RLUs) were then measured using a multi-mode microplate reader (Synergy 2, Biotek or envision multilabel plate reader, Perkin Elmer). The percentage of killing was determined by comparing RLU derived from assays with no antibodies to RLU derived from assays with anti-K. pneumoniae mAbs and assays performed with a negative control mAb. Positive killing was determined where the percentage of killing is above 40%.", "values": [{"molecule": "B1", "D Capsule OPK O2": "+++"}, {"molecule": "B2", "D Capsule OPK O2": "+++"}, {"molecule": "B3", "D Capsule OPK O2": "+"}, {"molecule": "B5", "D Capsule OPK O2": "+"}]}, {"tested_on": "K. pneumoniae 8570ΔcpsBLux (O2)", "assay": "Opsonophagocytic killing (OPK) assay, O2 capsule mutant", "assay_type": "cell-based, Klebsiella pneumoniae", "parameters": "key to D Capsule OPK O2: +++: Strongly positive activity; +: Positive activity; +/−: Somewhat positive depending upon the test conditions", "conditions": "secondary screening", "method": "as §4", "values": [{"molecule": "B1", "OPK activity against O2 capsule mutant": "strong OPK activity"}, {"molecule": "B2", "OPK activity against O2 capsule mutant": "strong OPK activity"}, {"molecule": "B3", "OPK activity against O2 capsule mutant": "showed OPK activity"}, {"molecule": "B4", "OPK activity against O2 capsule mutant": "showed OPK activity"}]}, {"tested_on": "K. pneumoniae 43816ΔcpsBLux (O1)", "assay": "Opsonophagocytic killing (OPK) assay, O1 capsule mutant", "assay_type": "cell-based, Klebsiella pneumoniae", "parameters": "key to D Capsule OPK O1: +++: Strongly positive activity; +: Positive activity; +/−: Somewhat positive depending upon the test conditions", "conditions": "capsule mutant strain 43816ΔcpsB lux (O1)", "method": "as §4", "values": [{"molecule": "B5", "D Capsule OPK O1": "+"}]}, {"tested_on": "O1 LPS", "assay": "ELISA binding to O1 LPS", "parameters": "species or system Klebsiella pneumoniae", "conditions": "secondary screening", "method": "as §1, §2", "values": [{"molecule": "B1", "binding to LPS-O1": "bound"}, {"molecule": "B3", "binding to LPS-O1": "bind"}, {"molecule": "B4", "binding to LPS-O1": "bind"}, {"molecule": "B5", "binding to LPS-O1": "confirmed to bind"}]}, {"tested_on": "O2 LPS activation of NF-κB in RAW264.7-lux cells", "assay": "LPS neutralization assay (NF-κB luciferase, RAW264.7-lux), O2 LPS", "assay_type": "cell-based, murine", "parameters": "key to LPS Neut O2: +++: Strongly positive activity; +: Positive activity; +/−: Somewhat positive depending upon the test conditions", "conditions": "Table 7 summary", "method": "as §3", "values": [{"molecule": "B2", "LPS Neut O2": "+/−"}, {"molecule": "B3", "LPS Neut O2": "+/−"}, {"molecule": "B5", "LPS Neut O2": "+"}]}, {"tested_on": "O2 LPS activation of NF-κB in RAW264.7-lux cells", "assay": "LPS neutralization assay (NF-κB luciferase, RAW264.7-lux), O2 LPS", "assay_type": "cell-based, murine", "parameters": "key to LPS Neut O2: +++: Strongly positive activity; +: Positive activity; +/−: Somewhat positive depending upon the test conditions", "conditions": "human IgG1 format", "method": "as §3", "values": [{"molecule": "B2", "neutralizing activity against O2 LPS (NF-κB activation)": "moderate neutralizing activity"}, {"molecule": "B3", "neutralizing activity against O2 LPS (NF-κB activation)": "moderate neutralizing activity"}, {"molecule": "B4", "neutralizing activity against O2 LPS (NF-κB activation)": "blocked"}, {"molecule": "B5", "neutralizing activity against O2 LPS (NF-κB activation)": "moderate neutralizing activity"}]}, {"tested_on": "O2 LPS activation of NF-κB in RAW264.7-lux cells", "assay": "LPS neutralization assay (NF-κB luciferase, RAW264.7-lux), O2 LPS", "assay_type": "cell-based, murine", "parameters": "key to LPS Neut O2: +++: Strongly positive activity; +: Positive activity; +/−: Somewhat positive depending upon the test conditions", "conditions": "secondary screening", "method": "as §3", "values": [{"molecule": "B1", "neutralization of LPS-O2": "neutralized"}, {"molecule": "B2", "neutralization of LPS-O2": "neutralized"}, {"molecule": "B3", "neutralization of LPS-O2": "neutralize"}, {"molecule": "B4", "neutralization of LPS-O2": "neutralize"}, {"molecule": "B5", "neutralization of LPS-O2": "neutralize"}]}]}
